We go through six proteins from PMC4225772.

Data set [1] is described as follows: cell-surface TF antigen, radiolabelled mAb binding, CHO. Conditions: glycan lost; control: wild-type TF-GFP.
Data set [2] can be described thus: FX activation assay, CHO cell surface. The settings on record: glycan lost; control: wild-type TF-GFP.
Data set [3] is described as follows: CHO lysates, GFP immunoblot and GFP fluorescence. Conditions: glycan lost; control: wild-type TF-GFP. For orientation: A western blot detects proteins with antibodies after separation by electrophoresis.
Data set [4] can be described thus: FX activation assay, HUVEC surface. Conditions: glycan lost; control: wild-type TF-GFP.
The nature of data set [5]: confocal microscopy, GFP and TF immunostaining, HUVEC. Conditions: glycan lost; control: wild-type TF-GFP.
The nature of data set [6]: FX activation in freeze-thaw HUVEC lysates. Conditions: glycan lost; control: wild-type TF-GFP.
Data set [7] can be described thus: FX activation on intact PBMC. Conditions: glycan lost; control: LPS-stimulated PBMC without tunicamycin.
A further data set is described as follows: TF antigen ELISA, PBMC. Conditions: glycan lost; control: LPS-stimulated PBMC without tunicamycin. In general terms: ELISA stands for enzyme-linked immunosorbent assay.

B1: tissue factor (TF): TFN11A (protein)
parent chain: METPAWPRVPRPETAVARTLLLGWVFAQVAGASGTTNTVAAYNLTWKSTNFKTILEWEPKPVNQVYTVQISTKSGDWKSKCFYTTDTECDLTDEIVKDVKQTYLARVFSYPAGNVESTGSAGEPLYENSPEFTPYLETNLGQPTIQSFEQVGTKVNVTVEDERTLVRRNNTFLSLRDVFGKDLIYTLYYWKSSSSGKKTAKTNTNEFLIDVDKGENYCFSVQAVIPSRTVNRKSTDSPVECMGQEKGEFREIFYIIGAVVFVVIILVIILAISLHKCRKAGVGQSWKENSPLNVS
Consider B1, for which the localisation_or_trafficking entry in data set [1] is given as “no change”. Besides, the enzymatic_activity entry in data set [2] is “no change”. The expression_or_secretion result in data set [3] is “no change”.

B2: tissue factor (TF): TFN11A/N124A/N137A-GFP (protein)
parent chain: METPAWPRVPRPETAVARTLLLGWVFAQVAGASGTTNTVAAYNLTWKSTNFKTILEWEPKPVNQVYTVQISTKSGDWKSKCFYTTDTECDLTDEIVKDVKQTYLARVFSYPAGNVESTGSAGEPLYENSPEFTPYLETNLGQPTIQSFEQVGTKVNVTVEDERTLVRRNNTFLSLRDVFGKDLIYTLYYWKSSSSGKKTAKTNTNEFLIDVDKGENYCFSVQAVIPSRTVNRKSTDSPVECMGQEKGEFREIFYIIGAVVFVVIILVIILAISLHKCRKAGVGQSWKENSPLNVS
As to B2, the enzymatic_activity entry in data set [4] and in data set [6] was “no change” each time. In addition, the localisation_or_trafficking entry in data set [5] is recorded as “no change”.

B3: tissue factor (TF): TFN11A/N124A/N137A (protein)
parent chain: METPAWPRVPRPETAVARTLLLGWVFAQVAGASGTTNTVAAYNLTWKSTNFKTILEWEPKPVNQVYTVQISTKSGDWKSKCFYTTDTECDLTDEIVKDVKQTYLARVFSYPAGNVESTGSAGEPLYENSPEFTPYLETNLGQPTIQSFEQVGTKVNVTVEDERTLVRRNNTFLSLRDVFGKDLIYTLYYWKSSSSGKKTAKTNTNEFLIDVDKGENYCFSVQAVIPSRTVNRKSTDSPVECMGQEKGEFREIFYIIGAVVFVVIILVIILAISLHKCRKAGVGQSWKENSPLNVS
Take B3: in data set [1], the localisation_or_trafficking entry is reported as “no change”. Moreover, the enzymatic_activity entry in data set [2] is on record as “no change”. Moreover, the expression_or_secretion entry in data set [3] is recorded as “no change”.

B4: tissue factor (TF): TFN11A/N137A (protein)
parent chain: METPAWPRVPRPETAVARTLLLGWVFAQVAGASGTTNTVAAYNLTWKSTNFKTILEWEPKPVNQVYTVQISTKSGDWKSKCFYTTDTECDLTDEIVKDVKQTYLARVFSYPAGNVESTGSAGEPLYENSPEFTPYLETNLGQPTIQSFEQVGTKVNVTVEDERTLVRRNNTFLSLRDVFGKDLIYTLYYWKSSSSGKKTAKTNTNEFLIDVDKGENYCFSVQAVIPSRTVNRKSTDSPVECMGQEKGEFREIFYIIGAVVFVVIILVIILAISLHKCRKAGVGQSWKENSPLNVS
Take B4: the localisation_or_trafficking result in data set [1] is reported as “no change”. Further, in data set [2], the enzymatic_activity entry is “no change”. Besides, the expression_or_secretion entry in data set [3] was “no change”.

B5: tissue factor (TF): TFN11A/N124A (protein)
parent chain: METPAWPRVPRPETAVARTLLLGWVFAQVAGASGTTNTVAAYNLTWKSTNFKTILEWEPKPVNQVYTVQISTKSGDWKSKCFYTTDTECDLTDEIVKDVKQTYLARVFSYPAGNVESTGSAGEPLYENSPEFTPYLETNLGQPTIQSFEQVGTKVNVTVEDERTLVRRNNTFLSLRDVFGKDLIYTLYYWKSSSSGKKTAKTNTNEFLIDVDKGENYCFSVQAVIPSRTVNRKSTDSPVECMGQEKGEFREIFYIIGAVVFVVIILVIILAISLHKCRKAGVGQSWKENSPLNVS
As to B5, the localisation_or_trafficking result in data set [1] was “no change”. In data set [2], the enzymatic_activity result is on record as “no change”. Also, the expression_or_secretion entry in data set [3] is “no change”.

B6: tissue factor (TF): tunicamycin (protein)
parent chain: METPAWPRVPRPETAVARTLLLGWVFAQVAGASGTTNTVAAYNLTWKSTNFKTILEWEPKPVNQVYTVQISTKSGDWKSKCFYTTDTECDLTDEIVKDVKQTYLARVFSYPAGNVESTGSAGEPLYENSPEFTPYLETNLGQPTIQSFEQVGTKVNVTVEDERTLVRRNNTFLSLRDVFGKDLIYTLYYWKSSSSGKKTAKTNTNEFLIDVDKGENYCFSVQAVIPSRTVNRKSTDSPVECMGQEKGEFREIFYIIGAVVFVVIILVIILAISLHKCRKAGVGQSWKENSPLNVS
Consider B6, for which the enzymatic_activity entry in data set [7] was “no change”. For the same protein, the expression_or_secretion result in “TF antigen ELISA, PBMC” was “no change”.
